Measured values taken from patent publication US20260001928A1 (CORTERIA PHARMACEUTICALS, priority 2022, published 2026).
*1 amine or outer side, *2 acyl side, *3 side chain or, on linkers, in order; H or OH if unused. Where no end group is shown, it is not given here. Side-chain parts run from the residue outwards. [ ]: non-standard residue; d: D form. The star is where a group is joined. C20 diacid = O=C(O)CCCCCCCCCCCCCCCCCCC(=O)*; γGlu = O=C(O)[C@H](CCC(=O)[*:2])N[*:1]; NMeI = CC[C@H](C)[C@H](NC)C(=O)O; AEEA = NCCOCCOCC(=O)O; Aib = CC(C)(N)C(=O)O

T1: CRF1R (corticotropin-releasing factor receptor 1), on the CRF1R-overexpression CHO-K1 cell line clone 2 (UniProt P34998 24-415, limits assumed)
T1 sequence (looked up): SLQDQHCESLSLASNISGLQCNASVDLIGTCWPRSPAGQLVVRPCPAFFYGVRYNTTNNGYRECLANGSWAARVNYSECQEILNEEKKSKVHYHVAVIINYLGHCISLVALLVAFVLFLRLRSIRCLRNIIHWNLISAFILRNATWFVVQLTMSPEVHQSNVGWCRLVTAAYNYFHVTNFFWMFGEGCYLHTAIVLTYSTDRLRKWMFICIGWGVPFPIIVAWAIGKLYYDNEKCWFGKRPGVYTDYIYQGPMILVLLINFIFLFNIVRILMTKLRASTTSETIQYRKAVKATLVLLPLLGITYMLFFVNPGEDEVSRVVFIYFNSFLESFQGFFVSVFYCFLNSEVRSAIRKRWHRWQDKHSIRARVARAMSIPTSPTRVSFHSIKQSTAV

B1: peptide of SEQ ID NO: 231 (peptide)
peptide: Ac-IVLSLD[dV]PIKLK([AEEA-γGlu-C20 diacid])KILLEQEKQKEQREQAETN[Aib]QILAQV-NH2
SMILES: CC[C@H](C)[C@H](NC(C)=O)C(=O)N[C@H](C(=O)N[C@@H](CC(C)C)C(=O)N[C@@H](CO)C(=O)N[C@@H](CC(C)C)C(=O)N[C@@H](CC(=O)O)C(=O)N[C@@H](C(=O)N1CCC[C@H]1C(=O)N[C@H](C(=O)N[C@@H](CCCCN)C(=O)N[C@@H](CC(C)C)C(=O)N[C@@H](CCCCNC(=O)COCCOCCNC(=O)CC[C@H](NC(=O)CCCCCCCCCCCCCCCCCCC(=O)O)C(=O)O)C(=O)N[C@@H](CCCCN)C(=O)N[C@H](C(=O)N[C@@H](CC(C)C)C(=O)N[C@@H](CC(C)C)C(=O)N[C@@H](CCC(=O)O)C(=O)N[C@@H](CCC(N)=O)C(=O)N[C@@H](CCC(=O)O)C(=O)N[C@@H](CCCCN)C(=O)N[C@@H](CCC(N)=O)C(=O)N[C@@H](CCCCN)C(=O)N[C@@H](CCC(=O)O)C(=O)N[C@@H](CCC(N)=O)C(=O)N[C@@H](CCCNC(=N)N)C(=O)N[C@@H](CCC(=O)O)C(=O)N[C@@H](CCC(N)=O)C(=O)N[C@@H](C)C(=O)N[C@@H](CCC(=O)O)C(=O)N[C@H](C(=O)N[C@@H](CC(N)=O)C(=O)NC(C)(C)C(=O)N[C@@H](CCC(N)=O)C(=O)N[C@H](C(=O)N[C@@H](CC(C)C)C(=O)N[C@@H](C)C(=O)N[C@@H](CCC(N)=O)C(=O)N[C@H](C(N)=O)C(C)C)[C@@H](C)CC)[C@@H](C)O)[C@@H](C)CC)[C@@H](C)CC)C(C)C)C(C)C
B2: peptide of SEQ ID NO: 230 (peptide)
peptide: Ac-IVLSLD[dV]PIKLK([AEEA-γGlu-C20 diacid])KILLEQEKQKKQREQAETN[Aib]QILAQV-NH2
SMILES: CC[C@H](C)[C@H](NC(C)=O)C(=O)N[C@H](C(=O)N[C@@H](CC(C)C)C(=O)N[C@@H](CO)C(=O)N[C@@H](CC(C)C)C(=O)N[C@@H](CC(=O)O)C(=O)N[C@@H](C(=O)N1CCC[C@H]1C(=O)N[C@H](C(=O)N[C@@H](CCCCN)C(=O)N[C@@H](CC(C)C)C(=O)N[C@@H](CCCCNC(=O)COCCOCCNC(=O)CC[C@H](NC(=O)CCCCCCCCCCCCCCCCCCC(=O)O)C(=O)O)C(=O)N[C@@H](CCCCN)C(=O)N[C@H](C(=O)N[C@@H](CC(C)C)C(=O)N[C@@H](CC(C)C)C(=O)N[C@@H](CCC(=O)O)C(=O)N[C@@H](CCC(N)=O)C(=O)N[C@@H](CCC(=O)O)C(=O)N[C@@H](CCCCN)C(=O)N[C@@H](CCC(N)=O)C(=O)N[C@@H](CCCCN)C(=O)N[C@@H](CCCCN)C(=O)N[C@@H](CCC(N)=O)C(=O)N[C@@H](CCCNC(=N)N)C(=O)N[C@@H](CCC(=O)O)C(=O)N[C@@H](CCC(N)=O)C(=O)N[C@@H](C)C(=O)N[C@@H](CCC(=O)O)C(=O)N[C@H](C(=O)N[C@@H](CC(N)=O)C(=O)NC(C)(C)C(=O)N[C@@H](CCC(N)=O)C(=O)N[C@H](C(=O)N[C@@H](CC(C)C)C(=O)N[C@@H](C)C(=O)N[C@@H](CCC(N)=O)C(=O)N[C@H](C(N)=O)C(C)C)[C@@H](C)CC)[C@@H](C)O)[C@@H](C)CC)[C@@H](C)CC)C(C)C)C(C)C
B3: peptide of SEQ ID NO: 232 (peptide)
peptide: Ac-IVLSLD[dV]PIKLK([AEEA-γGlu-C20 diacid])KILLEQEKQKAQREQAETN[Aib]QILAQV-NH2
SMILES: CC[C@H](C)[C@H](NC(C)=O)C(=O)N[C@H](C(=O)N[C@@H](CC(C)C)C(=O)N[C@@H](CO)C(=O)N[C@@H](CC(C)C)C(=O)N[C@@H](CC(=O)O)C(=O)N[C@@H](C(=O)N1CCC[C@H]1C(=O)N[C@H](C(=O)N[C@@H](CCCCN)C(=O)N[C@@H](CC(C)C)C(=O)N[C@@H](CCCCNC(=O)COCCOCCNC(=O)CC[C@H](NC(=O)CCCCCCCCCCCCCCCCCCC(=O)O)C(=O)O)C(=O)N[C@@H](CCCCN)C(=O)N[C@H](C(=O)N[C@@H](CC(C)C)C(=O)N[C@@H](CC(C)C)C(=O)N[C@@H](CCC(=O)O)C(=O)N[C@@H](CCC(N)=O)C(=O)N[C@@H](CCC(=O)O)C(=O)N[C@@H](CCCCN)C(=O)N[C@@H](CCC(N)=O)C(=O)N[C@@H](CCCCN)C(=O)N[C@@H](C)C(=O)N[C@@H](CCC(N)=O)C(=O)N[C@@H](CCCNC(=N)N)C(=O)N[C@@H](CCC(=O)O)C(=O)N[C@@H](CCC(N)=O)C(=O)N[C@@H](C)C(=O)N[C@@H](CCC(=O)O)C(=O)N[C@H](C(=O)N[C@@H](CC(N)=O)C(=O)NC(C)(C)C(=O)N[C@@H](CCC(N)=O)C(=O)N[C@H](C(=O)N[C@@H](CC(C)C)C(=O)N[C@@H](C)C(=O)N[C@@H](CCC(N)=O)C(=O)N[C@H](C(N)=O)C(C)C)[C@@H](C)CC)[C@@H](C)O)[C@@H](C)CC)[C@@H](C)CC)C(C)C)C(C)C
B4: peptide of SEQ ID NO: 233 (peptide)
peptide: [NMeI]VLSLD[dV]PIKLK([AEEA-γGlu-C20 diacid])KILLEQEKQKEQREQAETN[Aib]QILAQV-NH2
modifications: N-terminus assumed
SMILES: CC[C@H](C)[C@H](NC)C(=O)N[C@H](C(=O)N[C@@H](CC(C)C)C(=O)N[C@@H](CO)C(=O)N[C@@H](CC(C)C)C(=O)N[C@@H](CC(=O)O)C(=O)N[C@@H](C(=O)N1CCC[C@H]1C(=O)N[C@H](C(=O)N[C@@H](CCCCN)C(=O)N[C@@H](CC(C)C)C(=O)N[C@@H](CCCCNC(=O)COCCOCCNC(=O)CC[C@H](NC(=O)CCCCCCCCCCCCCCCCCCC(=O)O)C(=O)O)C(=O)N[C@@H](CCCCN)C(=O)N[C@H](C(=O)N[C@@H](CC(C)C)C(=O)N[C@@H](CC(C)C)C(=O)N[C@@H](CCC(=O)O)C(=O)N[C@@H](CCC(N)=O)C(=O)N[C@@H](CCC(=O)O)C(=O)N[C@@H](CCCCN)C(=O)N[C@@H](CCC(N)=O)C(=O)N[C@@H](CCCCN)C(=O)N[C@@H](CCC(=O)O)C(=O)N[C@@H](CCC(N)=O)C(=O)N[C@@H](CCCNC(=N)N)C(=O)N[C@@H](CCC(=O)O)C(=O)N[C@@H](CCC(N)=O)C(=O)N[C@@H](C)C(=O)N[C@@H](CCC(=O)O)C(=O)N[C@H](C(=O)N[C@@H](CC(N)=O)C(=O)NC(C)(C)C(=O)N[C@@H](CCC(N)=O)C(=O)N[C@H](C(=O)N[C@@H](CC(C)C)C(=O)N[C@@H](C)C(=O)N[C@@H](CCC(N)=O)C(=O)N[C@H](C(N)=O)C(C)C)[C@@H](C)CC)[C@@H](C)O)[C@@H](C)CC)[C@@H](C)CC)C(C)C)C(C)C

molecular target: Rat CRF2 a (corticotropin-releasing factor receptor 2), on the A7R5 rat aortic smooth muscle cell line (rat, UniProt P47866 20-411); assay: cell-based or functional assay
Sequence (P47866 20-411): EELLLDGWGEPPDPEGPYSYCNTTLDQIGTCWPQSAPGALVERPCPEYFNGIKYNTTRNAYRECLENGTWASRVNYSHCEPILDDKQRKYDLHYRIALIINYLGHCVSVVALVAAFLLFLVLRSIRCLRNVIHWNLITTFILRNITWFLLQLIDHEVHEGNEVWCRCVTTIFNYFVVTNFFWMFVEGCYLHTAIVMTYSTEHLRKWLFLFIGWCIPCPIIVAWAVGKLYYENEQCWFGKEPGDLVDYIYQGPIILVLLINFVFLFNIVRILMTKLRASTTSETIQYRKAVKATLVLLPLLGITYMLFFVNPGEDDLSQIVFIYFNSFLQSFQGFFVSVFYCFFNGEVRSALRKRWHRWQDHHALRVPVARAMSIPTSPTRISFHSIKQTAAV

Binder	EC50 [nM] 0% HSA (cAMP, A7R5 rat aortic smooth muscle cells) [nM]
B1	1.32
B2	0.11
B3	0.4
B4	0.37

molecular target: T1, CRF1R (corticotropin-releasing factor …); assay: cell-based or functional assay

Binder	EC50 [nM] (cAMP, CRF1R-overexpression CHO-K1 cells)	Emax (% I) (cAMP, 100% = Sauvagine at 100 nM)
B1	> 250	10
B2	> 250	30
B3	> 250	13
B4	> 250	8
